The values below are quoted from earlier work in PMC12524660.

The data set has as its target Cys156 (UniProt position 156, VSNASCTTNCL).

Regarding “Cytosolic NAD-dependent glyceraldehyde-3-phosphate dehydrogenase C1 (GAPC1) (Arabidopsis thaliana)”, the pKa entry is listed as “below pH 6”.
